Positions count from the first letter of the chain named. Names may count otherwise. One block for each binder: values may come before it.
Columns and labels:
FcγRIIB [1] = target: T1, FcγRIIB (human, UniProt P31994 43-217, biotin-labeled); assay: ELISA; relative affinity to FcγRIIB over that to FcγRIIA131R
T1 construct: extracellular domain; Bought protein; also called CD32b
T1 sequence (looked up): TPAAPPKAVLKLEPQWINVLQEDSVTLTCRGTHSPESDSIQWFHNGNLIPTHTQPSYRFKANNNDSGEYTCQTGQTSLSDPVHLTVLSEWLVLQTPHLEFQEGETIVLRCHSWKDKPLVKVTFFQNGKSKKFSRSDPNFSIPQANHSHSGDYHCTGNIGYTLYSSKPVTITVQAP
Method: One hundred μl (2 μg/mL) of antibody or mutant thereof were added to the enzyme-linked plate to be coated overnight, then the supernatant was discarded. The plate was blocked with PBS containing 1% BSA for 2 hours, and washed with PBST (PBS containing 0.05% Tween 20). Biotin-labeled FcγR extracellular domain protein (Beijing Sino Biological Co., Ltd) of appropriate concentration was added and incubated at room temperature for 1 hour, then the supernatant was discarded and the plate was washed with PBST. The Biotin-labeled protein was detected by incubating with Streptavidin-HRP (BD BioSciences) at room temperature for 1 hour. The supernatant was removed, and the color-developing solution was added for color development for 20-40 minutes to determine the absorbance of 650 nm (A650).
Anti-human OX40 antibodies containing these new Fc mutation combinations are expressed and the binding property of the mutant antibody to FcγR are analyzed by Enzyme-linked immunosorbent assay (ELISA).

FcγRI = target: T2, FcγRI (human, UniProt P12314 16-292, biotin-labeled); assay: ELISA, coated antibody, biotin-FcγR;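 for Absorbance value: antibody coated at 2 µg/mL at 100 µL per well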
T2 construct: extracellular domain; Bought protein; also called CD64

FcγRIIIA^158V = target: T3, FcγRIIIA^158V (human, UniProt P08637 17-208, biotin-labeled); assay: ELISA, coated antibody, biotin-FcγR;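 for Absorbance value: antibody coated at 2 µg/mL at 100 µL per well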
T3 construct: extracellular domain; Bought protein; also called RIIIAV; CD16a 158V

FcγRIIA^131R = target: T4, FcγRIIA^131R (human, UniProt P12318 34-217, biotin-labeled); assay: ELISA, coated antibody, biotin-FcγR;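 for Absorbance value: antibody coated at 2 µg/mL at 100 µL per well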
T4 construct: extracellular domain; Bought protein; also called RIIAR
T4 sequence (looked up): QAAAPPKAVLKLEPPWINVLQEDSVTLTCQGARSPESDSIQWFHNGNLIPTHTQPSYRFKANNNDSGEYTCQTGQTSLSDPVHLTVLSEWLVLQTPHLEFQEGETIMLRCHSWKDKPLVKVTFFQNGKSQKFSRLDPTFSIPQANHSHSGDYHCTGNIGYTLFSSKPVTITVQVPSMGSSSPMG

FcγRIIIA^158F = target: T5, FcγRIIIA^158F (human, UniProt P08637 17-208, biotin-labeled); assay: ELISA, coated antibody, biotin-FcγR;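 for Absorbance value: antibody coated at 2 µg/mL at 100 µL per well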
T5 construct: extracellular domain; Bought protein; also called RIIIAF

FcγRIIA^131H = target: T6, FcγRIIA^131H (human, UniProt P12318 34-217, biotin-labeled); assay: ELISA, coated antibody, biotin-FcγR;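 for Absorbance value: antibody coated at 2 µg/mL at 100 µL per well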
T6 construct: extracellular domain; Bought protein; also called RIIAH
T6 sequence (looked up): T4 sequence (looked up) with R134H

FcγRIIB [2] = target: T1, FcγRIIB; assay: ELISA, coated antibody, biotin-FcγR;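 for Absorbance value: antibody coated at 2 µg/mL at 100 µL per well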

T3 sequence (P08637 17-208 F176V): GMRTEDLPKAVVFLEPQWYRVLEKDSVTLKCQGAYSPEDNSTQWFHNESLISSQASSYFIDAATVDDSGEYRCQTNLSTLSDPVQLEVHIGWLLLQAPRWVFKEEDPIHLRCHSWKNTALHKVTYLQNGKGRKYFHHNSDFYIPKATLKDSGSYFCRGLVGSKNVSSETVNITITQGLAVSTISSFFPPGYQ
T5 sequence (P08637 17-208): as the sequence (P08637 17-208 F176V) above, with V160F counted along it
T2 sequence (P12314 16-292): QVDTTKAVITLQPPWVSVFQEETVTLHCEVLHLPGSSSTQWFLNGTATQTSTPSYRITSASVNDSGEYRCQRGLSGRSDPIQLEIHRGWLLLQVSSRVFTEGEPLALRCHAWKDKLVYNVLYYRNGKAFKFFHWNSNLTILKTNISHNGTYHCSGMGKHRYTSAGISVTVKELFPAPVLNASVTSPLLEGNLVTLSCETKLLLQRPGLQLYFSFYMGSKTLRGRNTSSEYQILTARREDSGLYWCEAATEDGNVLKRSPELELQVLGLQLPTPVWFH

B1: anti-human OX40 IgG2 antibody Mut_12 (P233F/V266L/S298L/L328W) (antibody)
heavy: QVQLQESGPGLVKPSGTLSLTCAVSGGSISSSIWWSWVRQPPGKGLEWIGEIHHSGNTNCNPSLKSRVTISIDKSKNQFSLKLTSVTAADTAVYYCARAGTGTTLDYWGQGTLVTVSSASTKGPSVFPLAPCSRSTSESTAALGCLVKDYFPEPVTVSWNSGALTSGVHTFPAVLQSSGLYSLSSVVTVPSSNFGTQTYTCNVDHKPSNTKVDKTVERKCCVECPPCPAPFVAGPSVFLFPPKPKDTLMISRTPEVTCVVVDLSHEDPEVQFNWYVDGVEVHNAKTKPREEQFNLTFRVVSVLTVVHQDWLNGKEYKCKVSNKGWPAPIEKTISKTKGQPREPQVYTLPPSREEMTKNQVSLTCLVKGFYPSDIAVEWESNGQPENNYKTTPPMLDSDGSFFLYSKLTVDKSRWQQGNVFSCSVMHEALHNHYTQKSLSLSPGK
light: EIVLTQSPGTLSLSPGERATLSCRASQSVSGDYLAWYQQKLGQAPRLLIYGASIRATGIPDRFSGSGSGTDFTLTISKLEPEDFAVYYCQQYGSSPLTFGGGTKVEIKRTVAAPSVFIFPPSDEQLKSGTASVVCLLNNFYPREAKVQWKVDNALQSGNSQESVTEQDSKDSTYSLSSTLTLSKADYEKHKVYACEVTHQGLSSPVTKSFNRGEC
notes: Substitutions in Eu numbering; entries include an unstated signal peptide
RIIB/RIIAR (FcγRIIB [1]): 0.99 ratio
Absorbance value (FcγRI): 0.21 A650
Relative binding affinity RI/G1 (FcγRI): 0.08 ratio
Absorbance value (FcγRIIIA^158V): 0.06 A650
Relative binding affinity RIIIAV/G1 (FcγRIIIA^158V): 0.06 ratio
Absorbance value (FcγRIIA^131R): 0.33 A650
Relative binding affinity RIIAR/G1 (FcγRIIA^131R): 1.26 ratio
Absorbance value (FcγRIIIA^158F): 0.06 A650
Relative binding affinity RIIIAF/G1 (FcγRIIIA^158F): 0.32 ratio
Absorbance value (FcγRIIA^131H): 0.39 A650
Relative binding affinity RIIAH/G1 (FcγRIIA^131H): 0.68 ratio
Absorbance value (FcγRIIB [2]): 0.94 A650
Increased factor of RIIB binding compared with wild-type IgG2 (FcγRIIB [2]): 12.6 fold
Relative binding affinity RIIB/G1 (FcγRIIB [2]): 1.25 ratio

B3: anti-human OX40 IgG2 antibody Mut_17 (V266L/S267E/H268S/E269V) (antibody, name in EU numbering)
heavy: B1 heavy with F231P, S264E, H265S, E266V, L295S, W325L
light: B1 light
notes: as for B1
RIIB/RIIAR (FcγRIIB [1]): 0.83 ratio
Absorbance value (FcγRI): 0.14 A650
Relative binding affinity RI/G1 (FcγRI): 0.05 ratio
Absorbance value (FcγRIIIA^158V): 0.06 A650
Relative binding affinity RIIIAV/G1 (FcγRIIIA^158V): 0.06 ratio
Absorbance value (FcγRIIA^131R): 0.5 A650
Relative binding affinity RIIAR/G1 (FcγRIIA^131R): 1.9 ratio
Absorbance value (FcγRIIIA^158F): 0.09 A650
Relative binding affinity RIIIAF/G1 (FcγRIIIA^158F): 0.49 ratio
Absorbance value (FcγRIIA^131H): 0.54 A650
Relative binding affinity RIIAH/G1 (FcγRIIA^131H): 0.95 ratio
Absorbance value (FcγRIIB [2]): 1.19 A650
Increased factor of RIIB binding compared with wild-type IgG2 (FcγRIIB [2]): 15.9 fold
Relative binding affinity RIIB/G1 (FcγRIIB [2]): 1.58 ratio

B4: anti-human OX40 IgG2 antibody Mut_15 (V234Q/A235G/P238L/S239V/G327A/L328E/A330S/I332T) (antibody)
heavy: QVQLQESGPGLVKPSGTLSLTCAVSGGSISSSIWWSWVRQPPGKGLEWIGEIHHSGNTNCNPSLKSRVTISIDKSKNQFSLKLTSVTAADTAVYYCARAGTGTTLDYWGQGTLVTVSSASTKGPSVFPLAPCSRSTSESTAALGCLVKDYFPEPVTVSWNSGALTSGVHTFPAVLQSSGLYSLSSVVTVPSSNFGTQTYTCNVDHKPSNTKVDKTVERKCCVECPPCPAPPQGGLVVFLFPPKPKDTLMISRTPEVTCVVVDVSHEDPEVQFNWYVDGVEVHNAKTKPREEQFNSTFRVVSVLTVVHQDWLNGKEYKCKVSNKAEPSPTEKTISKTKGQPREPQVYTLPPSREEMTKNQVSLTCLVKGFYPSDIAVEWESNGQPENNYKTTPPMLDSDGSFFLYSKLTVDKSRWQQGNVFSCSVMHEALHNHYTQKSLSLSPGK
light: B1 light
notes: as for B1
RIIB/RIIAR (FcγRIIB [1]): 3.67 ratio
Absorbance value (FcγRI): 0.08 A650
Relative binding affinity RI/G1 (FcγRI): 0.03 ratio
Absorbance value (FcγRIIIA^158V): 0.05 A650
Relative binding affinity RIIIAV/G1 (FcγRIIIA^158V): 0.06 ratio
Absorbance value (FcγRIIA^131R): 0.04 A650
Relative binding affinity RIIAR/G1 (FcγRIIA^131R): 0.17 ratio
Absorbance value (FcγRIIIA^158F): 0.06 A650
Relative binding affinity RIIIAF/G1 (FcγRIIIA^158F): 0.31 ratio
Absorbance value (FcγRIIA^131H): 0.04 A650
Relative binding affinity RIIAH/G1 (FcγRIIA^131H): 0.07 ratio
Absorbance value (FcγRIIB [2]): 0.47 A650
Increased factor of RIIB binding compared with wild-type IgG2 (FcγRIIB [2]): 6.21 fold
Relative binding affinity RIIB/G1 (FcγRIIB [2]): 0.62 ratio

The remaining lines, values ahead:

RIIB/RIIAR (FcγRIIB [1]): 1.03 ratio
Absorbance value (FcγRI): 0.14 A650
Relative binding affinity RI/G1 (FcγRI): 0.05 ratio
Absorbance value (FcγRIIIA^158V): 0.08 A650
Relative binding affinity RIIIAV/G1 (FcγRIIIA^158V): 0.09 ratio
Absorbance value (FcγRIIA^131R): 0.26 A650
Relative binding affinity RIIAR/G1 (FcγRIIA^131R): 1 ratio
Absorbance value (FcγRIIIA^158F): 0.09 A650
Relative binding affinity RIIIAF/G1 (FcγRIIIA^158F): 0.47 ratio
Absorbance value (FcγRIIA^131H): 0.38 A650
Relative binding affinity RIIAH/G1 (FcγRIIA^131H): 0.67 ratio
Absorbance value (FcγRIIB [2]): 0.78 A650
Increased factor of RIIB binding compared with wild-type IgG2 (FcγRIIB [2]): 10.4 fold
Relative binding affinity RIIB/G1 (FcγRIIB [2]): 1.04 ratio
B2: anti-human OX40 IgG2 antibody Mut_18 (P233G/S267E) (antibody)
heavy: B1 heavy with F231G, L263V, S264E, L295S, W325L
light: B1 light
notes: as for B1

RIIB/RIIAR (FcγRIIB [1]): 1.03 ratio
Absorbance value (FcγRI): 0.16 A650
Relative binding affinity RI/G1 (FcγRI): 0.06 ratio
Absorbance value (FcγRIIIA^158V): 0.06 A650
Relative binding affinity RIIIAV/G1 (FcγRIIIA^158V): 0.06 ratio
Absorbance value (FcγRIIA^131R): 0.11 A650
Relative binding affinity RIIAR/G1 (FcγRIIA^131R): 0.41 ratio
Absorbance value (FcγRIIIA^158F): 0.06 A650
Relative binding affinity RIIIAF/G1 (FcγRIIIA^158F): 0.31 ratio
Absorbance value (FcγRIIA^131H): 0.09 A650
Relative binding affinity RIIAH/G1 (FcγRIIA^131H): 0.16 ratio
Absorbance value (FcγRIIB [2]): 0.32 A650
Increased factor of RIIB binding compared with wild-type IgG2 (FcγRIIB [2]): 4.23 fold
Relative binding affinity RIIB/G1 (FcγRIIB [2]): 0.42 ratio
B5: anti-human OX40 IgG2 antibody Mut_21 (S267V/S298G/L328W) (antibody, name in EU numbering)
heavy: B1 heavy with F231P, L263V, S264V, L295G
light: B1 light
notes: as for B1

Reference: patent publication US20230220042A1 (SHANGHAI JIAO TONG UNIVERSITY SCHOOL OF MEDICINE, published 2023)
